Measured values as given in patent US20250221941A1, “NEPHRON PROGENITOR EXOSOMES” (VANDERBILT UNIVERSITY, priority 2021, published 2025).

Tested on: HK-2 cells
Assay: Sepsis-associated AKI model: cell-free hemoglobin-treated HK-2 cells, MTT, LDH, CC3, Ki-67, MDA
Format: cell-based
Experimental: Immortalized human cortical and proximal tubular epithelial (HK-2) cells were cultured in DMEM-F-12 with FBS [10% (wt/vol)] (Life Technologies, Carlsbad, CA), Insulin-Transferrin-Selenium (ITS) (Corning, Corning, NY), hydrocortisone (0.1 μM), and 1% Penicillin/Streptomycin. […] To induce the sepsis-associated AKI model, cells at confluence were exposed to 1 mg/ml purified cell-free hemoglobin (CFH) for 48 h. For all experiments, we used CFH purified from normal human blood by high pressure liquid chromatography (Pishchany, G., et al. J Vis Exp. 2013 Feb. 7 (72): 50072). After 48 h, the control or treated cells were harvested for immunostaining or assays. In both models, culture media was replaced after 48 h. For iNP-EV treatment, 10 μg of EVs was added to cells for the next 24 h.
The organoids were washed with PBS and then treated with MTT (3-(4,5-dimethylthiazol-2-yl)-2,5-diphenyltetrazolium bromide) reagent (Sigma-Aldrich) (1 mg/ml) for at least 60 min, leading to the purple formazan formation in living cells. The reagents were then removed and isopropanol was added to dissolve the insoluble formazan. The absorbance of the colored solution was measured using a microplate reader at 560 nm and 690 nm. Background absorbance at 690 nm was subtracted from absorbance at 560 nm and the O.D. values were plotted to measure cell viability.
LDH release from the cells was evaluated using CyQUANT™ LDH Cytotoxicity Assay Kit. Briefly, cell culture medium was collected for other purposes at 48 h after the treatment. The cells were treated with 10% Triton X-100 and incubated for 15 min before to obtain the maximum LDH release from the sample. Cell culture media was collected and 50 μl of each sample was transferred into a 96-well opaque-walled, non-transparent assay plate. The LDH detection reagent was prepared by combining the LDH detection enzyme mix and reductase substrate. Then 50 μl of detection reagent was added to each well. The wells were incubated for 60 min at room temperature. […] was recorded on a plate reader at 490 nm and the corresponding O.D. was plotted to quantify cell death.

[1] = HK-2, 1 mg/ml CFH 48 h vs control

For “CFH: cell-free hemoglobin purified from normal human blood by high pressure liquid chromatography; induces sepsis-associated AKI model”, the “concentration of Malondialdehyde (MDA), lipid peroxidation” value (HK-2, 1 mg/ml CFH 48 h, without CFH ~3.5 μM, p<0.0001) was 22.5 µM, the “cleaved caspase-3 staining” value [1] was “increased” and the “proliferation by Ki-67 staining” value [1] was “not different between the groups”. For the same substance, the LDH release (HK-2, 1 mg/ml CFH 48 h vs control, p<0.005) was “higher LDH release” and the “viability (MTT assay)” value (HK-2, 1 mg/ml CFH 48 h vs control, p=0.0001) was “substantial decline in viability”.
